The series in a line: protease stability score; higher = more stable; yeast display proteolysis, trypsin and chymotrypsin.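 Further: relative to predicted unfolded state with 0 unfolded-like and 1 meaning tenfold more protease.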
Consider “DEDHEAVERLLEHLQTAFLTGDWRREDELVDPNARVHFNGQERHGRHVLRYVNEFLEDRFKNLQIRHSTVHDSHVQGDKIILFTSYELRVDGREFSLKTKIIFHKVDGRWLVTHLYIE”, for which the protease stability score came to 0.823.

“DEDHEDMRKILELLRTAYETGDERVHEHLLDPNTRLHIGEFNNVGWHNVLEFFEQHQKELGVKHIELRLEDFDKQGDFLIIHGRLIVNVNGKRINVHLEVHMHKVNGRWYDRERRVL” yielded a protease stability score of 0.928.

As for “DEDHEDSKHALEYMLDSVRTGDEHRMKRLVDPNMKVHWDGVDVVGRELAAKFLSQLRVHSVHLKDHKVFDGQLDLHVHIRQEWDGRHRETRTTFFILKINGRWLVTEVRVD”, the protease stability score was determined as 0.249.

As to “DEDHEEFHRLVHEIFEYWRTGDEESLSELADPHVRYLYGDKIWIGREDMMTFLREIRIDRVHIEDMRVHKIGNKAEIRSDTRMDLHFNGKRLETKTEVKIVLHKVNGRWVIKSIEYRIE”, the protease stability score amounted to 2.13.

Regarding “DEDHEELHHWSRLTLESIKTGNEDELHKFADPNVRFKVNGKDIHGMESFVRFMLEFIDRYPNLVLEEKHFHVVNGRMIQIIRVRVGDKTSEIFLIAHKVDGRWHLEHMEIR”, the protease stability score stood at 1.08.

Regarding “DEDHEEVEKYLKLFMKISETGNEEDIKKMADPDTRVDIGDKRHHGMEEFLHFWSHWRIHSIDIKDIEVQGEKVIITGETDVTIDGRKLRMKIIIVALKVNGKWIHKSVKFE”, the protease stability score came to 1.37.

Regarding “DEDHEHLERHTRLFLERWRTGDEETLLKLFDPHARSEYGDKHHVGREEVTKLMVIILEKVKGLTIRRLRIKHIEYVDGRAHMDMEVTSEIDGQEVIESVHILMTKVDGRWRIQRVILV”, the protease stability score came to 0.927.

The sequence “DEDHEHLKRMADRSWKIFLTGDEDTFVHLADPNVKQHINIDGRNHQNHGREVILRWQEEFQNYFKNMKIELHDMKFYDGRVHIDATLHWNGVERKIHLIFVIVDGRIKEERFHVR” came in with a protease stability score of 0.707.

“DEDHEIAKKASDIWWHILRTGDEDQLHKMMDPHVRTTVGDKEHHGREAVEHLTHFYKNMQIHVTHERFHVQGDKVHVEREGHLRIGDKRVEVRVRIEIHKVDGKWIIHTIEMELR” returned a protease stability score of 0.425.

“DEDHEIATKVLELWERLINTGDEEQMSRLADPNTKITIGEKDIVGREDIIKDMRHIRWKVKDFKIHDSSVIDGRIHLDGEMHVIFDVNGRRHERTIRMEIIVEKIDGRWVFKSIHIE” had a protease stability score of 1.3.

Sequence “DEDHEILHRLWELLIKLLKTGDEEIMKRLADPDTKVEAEGRKLIGRDEFVKWMREFSKRFDHVEIRFKRMHIINGRVYMNGHIVEQQGEYQYRQDTIIVSEKVDGRWLITHIHIE” yielded a protease stability score of 1.44.

As to “DEDHEISKRALEQWIHDLHTGDEDTLRKFADPNARMEVDGVEHHGMELAMRILLRIDVTEIRIKDMRIVDGRVEIDGEVRDKVNGKTRESRVHLYVLKVDGRWVMESITIQ”, the protease stability score worked out at 0.476.

Take “DEDHELAEDAIRWMSKIMLTGNEEHLHEMFDPDARIRFEGRSSHGWEEMIHFIRHIRIYIKESRIRDVRIQGDKIDVIGEVKIVIRIGDKIHEDTRDVYILVVKVDGRWTVRSFELV”: the protease stability score is 0.712.

Take “DEDHELMRWMLELLIDHTLTGDEERIHELADPNVKIDVNGVELHGRHLWIKYLSELRIHKVEIRQTRLIDGVMHIDTSLDISYDGVRRETQHHLVILKINGKWMIHNVSYK”: the protease stability score worked out at 1.15.

The sequence “DEDHELSKLAQEWFYKTMVTGDEETAERLADPNMRIDINGKSLHGRKWQRHIIRDLGVDHVEFHDVRTINGQLHISTTINVDGRNQHTHIIVLKIDGRWSLRSSEFK” had a protease stability score of 0.614.

Consider “DEDHELSREFLEELLKSWITGDEDVMREFADPNVRQHVDGKDLHGMEEWTRFVYHMRFHDVRIEHHRLFDGQVEIKFREDVTYNGRRVHIESRVRIVKVNGVWRLKELYVH”, for which the protease stability score was determined as 0.858.

Take “DEDHELVEKFLRQMIFAQITGDWRFMMHLADPHVRYEVGDKHYHGREDMERVFREWRVNSIRIEHIRIIGDKAETHQDEDGHIDGRRIELHVRLILLKVDGRWIVHNSHII”: the protease stability score was determined as 1.37.

In turn, “DEDHELVHRAIRDLFRALDTGDEDALEEMMDPHTRLHVGDKIYHGRDNVLRFWRRLGVDHVKVHLHDVRIQGEKIDQNTELRIQIGDKRITTETRIIMFKFDGRWRRESVHIE” yielded a protease stability score of 1.01.

“DEDHEQAKRVFDELVDNTRTGDFDNLRKLMDPHARLVINGRNFIGREEVIRVMHEIRIETHRIRSIRIINGQARIDVESEVDINGRTEETRVEIIVFKVDGRWYLHTLRIV” returned a protease stability score of 1.99.

The sequence “DEDHEQSHEMLELFVHSWKTGDWEILIKLLDPHARSIVNGREVHGREEISRYFKEELKKIPNMRIEVKIRSVEIQGDKVDNDVEIIIKYGDKLIRRKVHLLDLKVDGRWFLTDVTIE” registered a protease stability score of 1.96.

“DEDHERSEIASKITYKIIETGNEDLFSHFADPNTRLHVNGVDSVGMEDVIKVHRKLWKDLGVDHFILHDQKVDVVDGVAEVRLDTRLRFNGREFETEVRFLVLKFNGRWWIRMIEFRVI” had a protease stability score of 0.968.

“DEDHERTKLFSKLFLKWTHTGDWEKILENADPNVRMHIGDKNFHGMHEVWRFLHEHLEKLGADVHSLTDLKIEAYNGVVVVHVEGTENINGRDITSRLHLIVIKVDGRWIIREIRVTIS” had a protease stability score of 1.29.

As to “DEDHESWERAYNIYLHALRTGDEERNHELADPRVLTHIDGVELHGREMMTRVMTELRIHEHRIHRVHIIGEKIDIDIEVRFRWNGKLVDTRTHEHRLKVDGKWLLTRFEVR”, the protease stability score was 0.76.

In turn, “DEDHEVFKRINDLFHESLETGDERVLERLMDPNTRIEYGDKRVHGREELLRHMREMGIDHFNVEDTTVINGVAMLDVSIVVNGKVFKLEFYVNKVNGQWHLEHVEIREI” returned a protease stability score of 0.661.

As for “DEDHHEAEEWADLITHFLKTGDEKFLRDLADPNTRFKYGDFHIHGREQLTNFLRHYVERVKGIRSELKDKHVDVQGEKVRVELDLVLRIGDKTIHITIIIINLKVDGKWYVHTLVVEHR”, the protease stability score was determined as 1.18.

Consider “DEDHHESHRALTELFKDLLTGDWKSSKELADPHARVDINGKEYHGREEMERFFKELWERLGIDHIDVKHIEIQGNKVISHLEIHVNGRTFNLIIIIDKVNGRWIIHSMKMDTE”, for which the protease stability score stood at 0.968.

As to “DEDHHLVQLASEIVSKLIHTGDEEMIYHLADPHTRNDVNGKVFHGRDEMLKYLHDRWRHFGVERINHIVHHIRVVDGRADIDGRLHVGDKDFTVHIHMEKVNGRWVIKEIRIK”, the protease stability score amounted to 0.68.

Take “DEDHKEVKHILRMWMENLYTGDEELNNRLLDPNARWEVNGRDIHGRELILKVLSNEYTEWRMKHIKIDHVENVNGQVHVDITIKYDINGQEINLRTHIRIYIINGKIHEIHISIH”: the protease stability score amounted to 0.576.

With “DEDHKFAVEILRRLMEIWFTGNEEELKHLADPDYRLRVRINGKEITRHGMEQSREQIKRWIDRIDHYEIRIRHLEWQGDKSHSHTELHMRFDGVIKKFETRIIVIVIDGKVSEIIIEIN”, the protease stability score was found to be 1.61.

“DEDHKHAERFVEEFITLILTGNEELLKRLADPNVKIDFDGVEIIGREILNSHTKKQINRIDHIRIHIRHIHVQGDKAIIDLEVRIIVDGKEDRNETHLFLTKVNGRWILTSWKVG”: the protease stability score turned out to be 1.6.

For the sequence “DEDHKHSEEAIKRWIDTMVTGDERLFNHLADPHTKIEFNGVDNHGMEEAVRVMIFIFRLLGVDHIRIEFRERHVFNGKVVWHFHLERRIGDKTEHINTHILMEKVDGRWLIQSERYE”, the protease stability score amounted to 1.56.

“DEDHKHWKKLTEILFHVFRTGDWHLLEKLADPNVRTVVNGVEIHGREHLADIMWLHKETLGIDHMELRSIEYQGEKFIIHAEIDVNGRKVDVHIRSVIIDGRMHSISIEVHHH”: the protease stability score is 1.99.

For the sequence “DEDHKIIEKLFRHWLELLLTGDEEEIEKQMDPHARIIINGRHTHGRDDIRRLLEEIRIRHLDIERLEIRIYGNKAVALSETRVEVRIGDKEFHVDYRIILIIEKVDGRWVKRSLELIVV”, the protease stability score is 1.71.

“DEDHKIVEHMVKLIIDSMHTGDEHSIRELFDPNTRMDVNGVDFHGWEHYHKRIEDLRKRADHVTIYIRDMKVINGQAHIHTEMRIDIGDKHLRHRVIIIVLKVDGRWVIEQVIFL” gave a protease stability score of 2.29.

(Values after the NTF2 design screens of Basanta et al. (2020).)
